Data from patent US20050114927.

Target: Yeast wild-type L3 incorporated into ribosomes of wild-type cells

B1: Pokeweed antiviral protein (PAP) (protein)
chain: VNTIIYNVGSTTISKYATFLNDLRNEAKDPSLKCYGIPMLPNTNTNPKYVLVELQGSNKKTITLMLRRNNLYVMGYSDPFETNKCRYHIFNDISGTERQDVETTLCPNANSRVSKNINFDSRYPTLESKAGVKSRSQVQLGIQILDSNIGKISGVMSFTEKTEAEFLLVAIQMVSEAARFKYIENQVKTNFNRAFNPNPKVLNLQETWGKISTAIHDAKNGVLPKPLELVDASGAKWIVLRVDEIKPDVALLNYVGGSCQTTY
Question: With B1 as the protein, how does the “association with isolated ribosomes (immunoblot with antibody against PAP)” value read?
Answer: Its value is “Both PAP and PAPx were associated with ribosomes in wild-type cells”.
